Test results published in PMC6694677.

Tests used:
[1] = target: recombinant CD3 antigen (ectodomain of hCD3) (human) (UniProt P07766); experiment: SPR; ProteOn XPR36, GLC chip; CD3 antigen immobilised by amine coupling at 1000 RU; antibodies (M802 0 to 50 nM) injected; Two state interaction model; KD = Kd/Ka
[2] = target: recombinant HER2 antigen (ectodomain of hHER2) (Homo sapiens) (UniProt P04626); experiment: SPR; ProteOn XPR36, GLC chip; HER2 antigen immobilised by amine coupling at 1000 RU; antibodies (M802 0 to 50 nM) injected; 1:1 L interaction model; KD = Kd/Ka
[3] = target: CD3 on Jurkat cells (human (endogenous in Jurkat)) (UniProt P07766); experiment: FACS; conditions: bispecific antibody
[4] = target: HER2 on SK-BR-3 cells (human (endogenous in SK-BR-3)) (UniProt P04626); experiment: FACS; conditions: bispecific antibody
[5] = target: recombinant CD3 antigen (ectodomain of hCD3) (human) (UniProt P07766); experiment: SPR; ProteOn XPR36; HER2 and CD3 antigens amine-coupled on a GLC chip at 1000 RU; M802 (0 to 50 nM) and other antibodies injected; 1:1 L interaction model for HER2, two state interaction model for CD3
[6] = target: recombinant HER2 antigen (ectodomain of hHER2) (Homo sapiens) (UniProt P04626); experiment: as above
[7] = target: HER2 on SK-BR-3 cells (human (endogenous in SK-BR-3)) (UniProt P04626); experiment: flow cytometry on cells; SK-BR-3 or Jurkat cells with serially diluted antibody, 1 h at room temperature; PE-conjugated anti-human IgG Fc as secondary antibody

Sequence of recombinant CD3 antigen (ectodomain of hCD3) (human) (P07766 23-126): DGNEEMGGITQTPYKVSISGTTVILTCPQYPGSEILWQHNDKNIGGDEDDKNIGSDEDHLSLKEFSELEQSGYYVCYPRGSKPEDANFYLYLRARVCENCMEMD
Sequence of CD3 on Jurkat cells (human (endogenous in Jurkat)) (P07766 23-207, chain 1 of 3): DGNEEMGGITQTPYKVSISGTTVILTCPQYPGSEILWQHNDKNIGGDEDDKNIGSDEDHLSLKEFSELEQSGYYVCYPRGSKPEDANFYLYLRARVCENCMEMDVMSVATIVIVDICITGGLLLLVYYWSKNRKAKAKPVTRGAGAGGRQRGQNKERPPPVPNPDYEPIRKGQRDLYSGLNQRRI
Sequence of CD3 on Jurkat cells (human (endogenous in Jurkat)) (P04234 22-171, chain 2 of 3, further chain): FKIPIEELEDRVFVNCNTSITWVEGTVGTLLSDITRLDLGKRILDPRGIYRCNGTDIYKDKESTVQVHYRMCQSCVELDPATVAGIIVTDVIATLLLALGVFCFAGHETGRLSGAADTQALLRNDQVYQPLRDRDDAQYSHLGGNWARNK
Sequence of CD3 on Jurkat cells (human (endogenous in Jurkat)) (P09693 23-182, chain 3 of 3, further chain): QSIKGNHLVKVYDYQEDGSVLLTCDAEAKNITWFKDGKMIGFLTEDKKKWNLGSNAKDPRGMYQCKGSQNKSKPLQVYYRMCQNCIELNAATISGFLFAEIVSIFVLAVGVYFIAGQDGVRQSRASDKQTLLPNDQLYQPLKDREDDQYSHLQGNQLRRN

M802, anti-HER2/CD3 bispecific antibody (monovalent unit against HER2 and single chain unit against CD3)
koff [1]: 0.0245 s⁻¹
kon [1]: 345000 M⁻¹ s⁻¹
koff [2]: 0.000248 s⁻¹
kon [2]: 429000 M⁻¹ s⁻¹

M802, anti-HER2/CD3 bispecific antibody (MSBODY format: monovalent unit against HER2 and single chain unit against CD3) (from UniProt P01857)
Kd [3]: 0.187 µM
Kd [4]: 0.0117 µM

M802, anti-HER2/CD3 bispecific antibody (MSBODY format: monovalent unit against HER2 and single chain unit against CD3)
Kd [5]: 0.0712 µM
Kd [6]: 0.000578 µM
fold weaker affinity than Herceptin [7]: 3 fold
